Results: patent publication US20240327535A1 (EISAI R AND D MANAGEMENT, published 2024)
Positions count from the first letter of the chain named. Read-outs that look alike come from different tables or passages of the source.

T1: extracellular domain of human BCMA (human, UniProt Q02223 1-54)
T1 construct: amine-linked to Octet AR2G tips; also called hsBCMA; BCMA (human)
T1 sequence: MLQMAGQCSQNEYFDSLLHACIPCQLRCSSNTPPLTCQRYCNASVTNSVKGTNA

B1: AB200-R1a-Fab_VH1 (Fab, V domains shown)
VH: QVQLVQSGAEVKKPGSSVKVSCKASGGTFSNYWMHWVRQAPGQGLEWMGATYRGHSETYYNEKFKGRVTITADKSTSTAYMELSSLRSEDTAVYYCARGAIYHGYDVLDDWGQGTLVTVSS
VL: DIQMTQSPSSLSASVGDRVTITCSATQDISNYLNWYQQKPGKAPKLLIYFTSNLQSGVPSRFSGSGSGTDFTLTISSLQPEDFATYYCQQYRKLPWTFGQGTKLEIKR
B2: AB200-R1a-Fab_VH2 (Fab, V domains shown)
VH: B1 VH with E57D, E62Q, K65Q, I101V, Y102F, D110N
VL: B1 VL
B3: AB200-R1a-Fab_VH3 (Fab, V domains shown)
VH: B1 VH with H35S, E57Q, E62Q, I101V, D110N
VL: B1 VL
B4: AB200-R1a-Fab_VH4 (Fab, V domains shown)
VH: B1 VH with S25T, E57N, N61D, E62Q, D110N
VL: B1 VL
B5: AB200-R1a-Fab_VH5 (Fab, V domains shown)
VH: B1 VH with E57D, T58S, Y59N, E62N, D110N
VL: B1 VL
B6: AB200-R1a-Fab_VH13 (Fab, V domains shown)
VH: B1 VH with E57T, N61A, E62Q, F64Y, D110N
VL: B1 VL
B7: AB200-R1a-Fab_VH15 (Fab, V domains shown)
VH: B1 VH with F29Y, E57D, T58A, E62Q, K63R, D110N
VL: B1 VL
B8: AB200-R1a-Fab_VH17 (Fab, V domains shown)
VH: B1 VH with N31S, E57D, N61A, E62Q, D106E, D110N
VL: B1 VL
B9: AB200-R1a-Fab_VH18 (Fab, V domains shown)
VH: B1 VH with R53K, E57D, E62Q, K74E, D106E, D110N
VL: B1 VL
B10: AB200-R1a-Fab_VH19 (Fab, V domains shown)
VH: B1 VH with T28S, H35Q, E57D, E62Q, A100S, D110N
VL: B1 VL
B11: AB200-R1a-Fab_VH20 (Fab, V domains shown)
VH: B1 VH with Y52I, E57Q, E62Q, K65Q, D110N
VL: B1 VL
B12: AB200-R1a-Fab_VH21 (Fab, V domains shown)
VH: B1 VH with W33A, H55Q, E57D, E62Q, F64Y, D110N
VL: B1 VL
B13: AB200-R1a-Fab_VH23 (Fab, V domains shown)
VH: B1 VH with W33Y, E57D, Y59F, N61A, E62Q, D110N
VL: B1 VL
B14: AB200-R1a-Fab_VH24 (Fab, V domains shown)
VH: B1 VH with S30T, E57N, E62Q, L108I, D110N
VL: B1 VL
B15: AB200-R1a-Fab_VH26 (Fab, V domains shown)
VH: B1 VH with T28S, G54I, E57D, Y59F, E62Q, D110N
VL: B1 VL
B16: AB200-R1a-Fab_VH27 (Fab, V domains shown)
VH: B1 VH with S25T, T51I, E57D, E62Q, K65R, D110N
VL: B1 VL
B17: AB200-R1a-Fab_VH30 (Fab, V domains shown)
VH: B1 VH with F29Y, S56T, E57D, E62Q, L108M, D110N
VL: B1 VL
B18: AB200-R1a-Fab_VH31 (Fab, V domains shown)
VH: B1 VH with A50G, E57D, Y60F, E62Q, Y105F, D110N
VL: B1 VL
B19: AB200-R1a-Fab_VH33 (Fab, V domains shown)
VH: B1 VH with S30T, Y32F, H55Q, E57D, E62Q, D110N
VL: B1 VL
B20: AB200-R1a-Fab_VH34 (Fab, V domains shown)
VH: B1 VH with W33Y, M34L, E57D, E62Q, H103N, D110N
VL: B1 VL
B21: AB200-R1a-Fab_VH35 (Fab, V domains shown)
VH: B1 VH with M34I, Y52F, R53K, E57D, E62Q, D110N
VL: B1 VL
B22: AB200-R1a-Fab_VH36 (Fab, V domains shown)
VH: B1 VH with Y52F, E57D, E62H, Y105F, D110N
VL: B1 VL
B23: AB200-R1a-Fab_VH37 (Fab, V domains shown)
VH: B1 VH with S30T, R53K, E57D, E62Q, K65R, D110N
VL: B1 VL
B24: AB200-R1a-Fab_VH38 (Fab, V domains shown)
VH: B1 VH with E57D, Y60F, E62Q, Y102F, H103N, D110N
VL: B1 VL
B25: AB200-R1a-Fab_VH40 (Fab, V domains shown)
VH: B1 VH with Y32F, E57D, E62H, D109E, D110N
VL: B1 VL
B26: AB200-R1a-Fab_VH41 (Fab, V domains shown)
VH: B1 VH with E57D, V107I, D109N, D110N
VL: B1 VL
B27: AB200-R1a-Fab_VH42 (Fab, V domains shown)
VH: B1 VH with E57T, E62Q, A100S, L108M, D110N
VL: B1 VL
B28: AB200-R1a-Fab_VH44 (Fab, V domains shown)
VH: B1 VH with A50G, E57D, E62Q, K63R, V107I, D110N
VL: B1 VL
B29: AB200-R1a-Fab_VH45 (Fab, V domains shown)
VH: B1 VH with E57D, E62N, D109E
VL: B1 VL
B30: AB200-R1a-Fab_VH46 (Fab, V domains shown)
VH: B1 VH with E57D, Y59N, E62Q, F64Y, H103N, D110N
VL: B1 VL
B31: AB200-R1a-Fab_VH51 (Fab, V domains shown)
VH: B1 VH with E57D, Y59N, E62Q, A100T, Y105F, D110N
VL: B1 VL
B32: AB200-R1H32-R2Vk26 (Fab, V domains shown)
VH: B1 VH with G54S, E57D, E62Q, G66S, L108I, D110N
VL: B1 VL with S24R, T26S, D28S, N31S, F50A, L54I, Y91F, K93R
B33: AB200-R1H32-R2Vk29 (Fab, V domains shown)
VH: B1 VH with G54S, E57D, E62Q, G66S, L108I, D110N
VL: B1 VL with S24R, T26S, D28S, N31S, F50A, S56I, K93R, T97S
B34: AB200-R1H32-R2Vk30 (Fab, V domains shown)
VH: B1 VH with G54S, E57D, E62Q, G66S, L108I, D110N
VL: B1 VL with S24R, T26S, D28S, N31S, F50A, S56I, K93R, L94I
B35: AB200-R1H32-R2Vk32 (Fab, V domains shown)
VH: B1 VH with G54S, E57D, E62Q, G66S, L108I, D110N
VL: B1 VL with S24R, T26S, D28S, N31S, F50A, S56I, L94I, T97S
B36: AB200-R1H32-R2Vk33 (Fab, V domains shown)
VH: B1 VH with G54S, E57D, E62Q, G66S, L108I, D110N
VL: B1 VL with S24R, T26S, D28S, N31S, F50A, S56I, Y91F, L94I
B37: AB200-R1H32-R2Vk34 (Fab, V domains shown)
VH: B1 VH with G54S, E57D, E62Q, G66S, L108I, D110N
VL: B1 VL with S24R, T26S, D28S, N31S, L33I, F50A, K93R, T97S
B38: AB200-R1H32-R2Vk37 (Fab, V domains shown)
VH: B1 VH with G54S, E57D, E62Q, G66S, L108I, D110N
VL: B1 VL with S24R, T26S, D28S, N31S, L33I, F50A, L94I, T97S
B39: AB200-R1H32-R2Vk38 (Fab, V domains shown)
VH: B1 VH with G54S, E57D, E62Q, G66S, L108I, D110N
VL: B1 VL with S24R, T26S, D28S, N31S, L33I, F50A, Y91F, L94I
B40: AB200-R1H32-R2Vk40 (Fab, V domains shown)
VH: B1 VH with G54S, E57D, E62Q, G66S, L108I, D110N
VL: B1 VL with S24R, T26S, D28S, N31S, L33I, F50A, L54I, K93R, L94I
B41: AB200-R1H32-R2Vk43 (Fab, V domains shown)
VH: B1 VH with G54S, E57D, E62Q, G66S, L108I, D110N
VL: B1 VL with S24R, T26S, D28S, N31S, L33I, F50A, L54I, Y91F, L94I
B42: AB200-R1H32-R2Vk44 (Fab, V domains shown)
VH: B1 VH with G54S, E57D, E62Q, G66S, L108I, D110N
VL: B1 VL with S24R, T26S, D28S, N31S, L33I, F50A, S56I, K93R, T97S

Assays:
Assay in all cases: Octet BLI; Fab 200 nM
[1] = molecular target: T1, extracellular domain of human BCMA
[2] = molecular target: T2, extracellular domain of rhesus monkey BCMA (rhesus monkey, UniProt F7FFA0 1-53)
T2 construct: extracellular domain; also called RhBCMA
T2 sequence (F7FFA0 entry or part of it): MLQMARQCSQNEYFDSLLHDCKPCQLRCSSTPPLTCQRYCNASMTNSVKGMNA

[3] = molecular target: T1, extracellular domain of human BCMA; remark: listed apart in the source
[4] = molecular target: T2, extracellular domain of rhesus monkey …; remark: listed apart in the source

| Binder | Kd [1] [nM] | Kd [2] [nM] | Kd [3] [nM] | Kd [4] [nM] |
| --- | --- | --- | --- | --- |
| B1 | 21 | 32.2 | – | – |
| B2 | 2.85 | 11.1 | – | – |
| B3 | 53.1 | – | – | – |
| B4 | 5.45 | 13.7 | – | – |
| B5 | 21.1 | 23.4 | – | – |
| B6 | 5.38 | 12.9 | – | – |
| B7 | 11.7 | 17.1 | – | – |
| B8 | 82.7 | 70.2 | – | – |
| B9 | 7.73 | 10.6 | – | – |
| B10 | 18.5 | 35.6 | – | – |
| B11 | 10.5 | 15.1 | – | – |
| B12 | 5.23 | 11.1 | – | – |
| B13 | 20.4 | 19.9 | – | – |
| B14 | 13.1 | 24.5 | – | – |
| B15 | 0.926 | 2.31 | – | – |
| B16 | 3.8 | 7.84 | – | – |
| B17 | 22.3 | 28.2 | – | – |
| B18 | 9.06 | 19.2 | – | – |
| B19 | 1.43 | 5.12 | – | – |
| B20 | 18.9 | 13.2 | – | – |
| B21 | 8.5 | 9.49 | – | – |

| Binder | Kd [1] [nM] | Kd [2] [nM] | Kd [3] [nM] | Kd [4] [nM] |
| --- | --- | --- | --- | --- |
| B22 | 28.1 | 45.4 | – | – |
| B23 | 5.28 | 10.4 | – | – |
| B24 | 4.12 | 12.1 | – | – |
| B25 | 17.2 | 45.3 | – | – |
| B26 | 14.5 | – | – | – |
| B27 | 28.4 | 15.5 | – | – |
| B28 | 29 | 8.61 | – | – |
| B29 | 21.1 | 44.9 | – | – |
| B30 | 11.6 | 20 | – | – |
| B31 | 18.9 | – | – | – |
| B32 | – | – | 1.06 | 3.85 |
| B33 | – | – | 1.14 | 3.69 |
| B34 | – | – | 0.816 | 3.92 |
| B35 | – | – | 0.873 | 4.83 |
| B36 | – | – | 0.996 | 4.29 |
| B37 | – | – | 1.12 | 4.53 |
| B38 | – | – | 0.85 | 4.41 |
| B39 | – | – | 1.15 | 5.35 |
| B40 | – | – | 1.03 | 5.08 |
| B41 | – | – | 1.29 | 9.2 |
| B42 | – | – | 0.71 | 3.32 |
